Molecular target: the molecule itself
Assay: SEC-MALS; Superdex 200 Increase 10/300 GL in TBS (20 mM Tris pH 8.0, 100 mM NaCl, 1 mM EDTA, 1 mM DTT); individual proteins or mixture, up to 500 μM

B1: liprin-α2_CC2 (domain or fragment, human, UniProt O75334 259-542, looked up)
chain: GSIDSTDETSQIVELQELLEKQNYEMAQMKERLAALSSRVGEVEQEAETARKDLIKTEEMNTKYQRDIREAMAQKEDMEERITTLEKRYLSAQRESTSIHDMNDKLENELANKEAILRQMEEKNRQLQERLELAEQKLQQTMRKAETLPEVEAELAQRIAALTKAEERHGNIEERMRHLEGQLEEKNQELQRARQREKMNEEHNKRLSDTVDRLLTESNERLQLHLKERMAALEEKNVLIQESETFRKNLEESLHDKERLAEEIEKLRSELDQLKMRTGSLIEP
notes: liprin-α2, human, GenBank AF034799.1, CC2 region, residues 259-542; Dimeric by SEC-MALS at 500 μM; source: E. coli BL21(DE3), purified (Ni-NTA, SEC)
For B1, the “stoichiometry N” value was 2.

From doi:10.1101/2024.08.29.610253, “Liprin-α/RIM complex regulates the dynamic assembly of presynaptic active zones via liquid-liquid phase separation” (bioRxiv, 2024)
